Measured values published in PMC9249326 (2022).

Key:
[1] = biological target: T1, 6xHis-tagged human NGF (nerve growth factor) (human, UniProt P01138 19-241); experiment: BLI
[2] = biological target: T1, 6xHis-tagged human NGF (nerve growth …); experiment: BLI; remark: listed apart in the source

T1 sequence (P01138 122-241): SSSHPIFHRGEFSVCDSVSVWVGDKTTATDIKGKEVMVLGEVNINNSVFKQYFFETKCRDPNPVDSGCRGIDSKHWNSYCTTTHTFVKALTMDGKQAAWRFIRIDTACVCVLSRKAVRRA

Kd [1]: < 1 pM
koff [2]: < 1e-07 s⁻¹
B1: tanezumab (antibody, V domains shown)
VH: QVQLQESGPGLVKPSETLSLTCTVSGFSLIGYDLNWIRQPPGKGLEWIGIIWGDGTTDYNSAVKSRVTISKDTSKNQFSLKLSSVTAADTAVYYCARGGYWYATSYYFDYWGQGTLVTVSS
VL: DIQMTQSPSSLSASVGDRVTITCRASQSISNNLNWYQQKPGKAPKLLIYYTSRFHSGVPSRFSGSGSGTDFTFTISSLQPEDIATYYCQQEHTLPYTFGQGTKLEIK
